In patent US20140303084:
Numbering of substitutions follows the chain as printed.

What was measured:
TGS-KLTCLASYCWLF-APG = system: T1, TGS-KLTCLASYCWLF-APG
T1 sequence: TGSKLTCLASYCWLFAPG

RRAPGKLQCLASYCWLFWAGIA = system: T2, RRAPGKLQCLASYCWLFWAGIA
T2 sequence: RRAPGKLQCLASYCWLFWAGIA

[1] = system: T3, KLT-Orn-LASY-Glu-WLF-CONH2
T3 sequence: KLTXLASYEWLF

RRAPGKLTCLASYCWLFWTGIa [2] = system: T4, RRAPGKLTCLASYCWLFWTGIa
T4 sequence: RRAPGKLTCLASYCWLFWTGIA

[3] = system: T5, aigtwflwcysalctlkgparr (retro-inverso)
T5 sequence: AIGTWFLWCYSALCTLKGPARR

[4] = system: T6, RRAPGKLTCLASYCWLF STPVA RKSLRRHQPT
T6 sequence: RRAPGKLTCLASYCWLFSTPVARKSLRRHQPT

[5] = system: T7, SKQGRPIAPDrRAAGKLTCLASYCWLFWTGIA
T7 sequence: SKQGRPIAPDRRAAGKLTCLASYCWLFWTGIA

FGQPSRLTCLASYCWLFGNLVT = system: T8, FGQPSRLTCLASYCWLFGNLVT
T8 sequence: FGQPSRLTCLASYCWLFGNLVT

KLKCLASYCWLF = system: T9, KLKCLASYCWLF
T9 sequence: KLKCLASYCWLF

[6] = system: T10, RRAPGKLQCLASYCWLFWTG-(1-Nal)-A
T10 sequence: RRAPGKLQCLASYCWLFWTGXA

[7] = system: T11, QRAGRVARLH RRAPN KLTCLASYCWLFWTGIA
T11 sequence: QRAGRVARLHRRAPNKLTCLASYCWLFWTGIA

[8] = system: T12, AVVRGQEPTH RRTPG KLTCLASYCWLFWTGIA
T12 sequence: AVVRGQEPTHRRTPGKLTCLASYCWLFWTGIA

[9] = system: T13, RRAPGKLT-Lys-LASY-Glu-WLFWTGIA-CONH2
T13 sequence: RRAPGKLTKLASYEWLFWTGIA

[10] = system: T14, PRSRTVGPGSRSASGKSTCLASYCWLFWTGIA
T14 sequence: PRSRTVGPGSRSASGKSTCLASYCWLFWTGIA

[11] = system: T15, RRAPGKLTCLASYACLFWTGIA-COOH
T15 sequence: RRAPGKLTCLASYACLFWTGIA

[12] = system: T16, RRAPGKLQCLASYCWLFWTG-Cha-A
T16 sequence: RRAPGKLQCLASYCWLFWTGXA

[13] = system: T17, PRIRTVGPGSRSASGKLTCLASYCWLLWTGIA
T17 sequence: T14 sequence with S3I, S17L, F27L

NGGMQKPACLASQCWLFANPLP = system: T18, NGGMQKPACLASQCWLFANPLP
T18 sequence: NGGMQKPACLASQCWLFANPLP

KATCLASYCWLF = system: T19, KATCLASYCWLF
T19 sequence: KATCLASYCWLF

[14] = system: T20, CRRAPGKLQCLASYCWLFWTGIAGGSGGC
T20 sequence: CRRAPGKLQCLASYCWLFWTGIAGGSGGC

KLT-Dap-LASY-Glu-WLF = system: T21, KLT-Dap-LASY-Glu-WLF
T21 sequence: KLTXLASYEWLF

[15] = system: T22, SAQGRPISPDrRAAGKLTCLASYCWLFWTGIA
T22 sequence: T7 sequence with K2A, A8S

[16] = system: T23, RRAPGKLTCLASYAWCFWTGIA-COOH
T23 sequence: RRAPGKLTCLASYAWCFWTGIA

[17] = system: T24, SKQGRPISSDrRAAGKLTCLASYCWLFWTGIA
T24 sequence: T7 sequence with A8S, P9S

[18] = system: T25, RRAPGKLTCLASYCWLF WTGLL DYPTPQSHEP
T25 sequence: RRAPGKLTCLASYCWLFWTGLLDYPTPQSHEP

rRAAGKATCLASACW LAATGIA = system: T26, rRAAGKATCLASACW LAATGIA
T26 sequence: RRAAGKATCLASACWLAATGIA

[19] = system: T27, SKQGRPISPDrRAAGKLTCLASYCW-NMeLeu-FWTGIA
T27 sequence: T7 sequence with A8S

R-k-MeLeu-TCLASYCWLF = system: T28, R-k-MeLeu-TCLASYCWLF
T28 sequence: RKLTCLASYCWLF

[20] = system: T29, RRAPGKLCALASYCWLFWTGIA-COOH
T29 sequence: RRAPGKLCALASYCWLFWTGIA

KLACLASYCWLF = system: T30, KLACLASYCWLF
T30 sequence: KLACLASYCWLF

[21] = system: T31, SRIRTVGPGSRSASGKSTCLASYCWLFWTGIA
T31 sequence: T14 sequence with P1S, S3I

[22] = system: T32, (KLTCLASYCWLF)2═N-O-(CH2)3-O-N═
T32 sequence: KLTCLASYCWLF

KL-MeThr-CLASYCWLF = system: T33, KL-MeThr-CLASYCWLF
T33 sequence: KLTCLASYCWLF

[23] = system: T34, RRAPGCLTALASYCWLFWTGIA-CONH2
T34 sequence: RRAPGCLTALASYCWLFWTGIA

[24] = system: T35, RRAPGKLTC-MeLeu-ASYCWLFWTGIA
T35 sequence: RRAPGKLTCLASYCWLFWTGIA

[25] = system: T36, SRIRTVSPGSRSASGKSTCLASYCWLFWTGIA
T36 sequence: T14 sequence with P1S, S3I, G7S

[26] = system: T37, PRIRTVGPGSRSASGKLTCLASYCWLFATGIA
T37 sequence: T14 sequence with S3I, S17L, W28A

[27] = system: T38, GYRVPVGGLV RRAHG KLTCLASYCWLFWTGIA
T38 sequence: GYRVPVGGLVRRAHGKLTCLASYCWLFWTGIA

KLT-Dab-LASY-Glu-WLF = system: T39, KLT-Dab-LASY-Glu-WLF
T39 sequence: KLTXLASYEWLF

RRAPGKLTCLASYCWLFWtGIA [28] = system: T40, RRAPGKLTCLASYCWLFWtGIA
T40 sequence: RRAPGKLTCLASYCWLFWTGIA

[29] = system: T41, RRAPGKLTCLASYCWLF WAVIA PPKVKGTRQS
T41 sequence: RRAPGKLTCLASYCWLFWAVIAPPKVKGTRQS

[30] = system: T42, PRIRTVGPGSRSASGKLTCLASYCWLFWTSIA
T42 sequence: T14 sequence with S3I, S17L, G30S

[31] = system: T43, PRIRTVGPGSRSASGKSTCLASYCWLFWTGIA
T43 sequence: T14 sequence with S3I

[32] = system: T44, CGGGLVPRGGG-RRAPGKLT-Asp-LASY-Lys-WLFWTGIA
T44 sequence: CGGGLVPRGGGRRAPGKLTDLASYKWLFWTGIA

[33] = system: T45, RRAPGKLK(PEG2-Biotin)CLASYCWLFWTGIA
T45 sequence: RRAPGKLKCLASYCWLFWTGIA

[34] = system: T46, RRAPGKLTCLK(PEG2-Biotin)SYCWLFWTGIA
T46 sequence: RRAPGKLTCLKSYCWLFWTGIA

[35] = system: T47, CGGG-RRAPGKLT-Asp-LASY-Lys-WLFWTGIA
T47 sequence: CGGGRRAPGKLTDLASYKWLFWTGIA

human Factor IXa
Vmax, FXa generation assay (TGS-KLTCLASYCWLF-APG): > 2
Vmax, FXa generation assay (RRAPGKLQCLASYCWLFWAGIA): > 3
Vmax, FXa generation assay; (++) means 1-2 [1]: (++)
Vmax, FXa generation assay; (++) means 1-2 (RRAPGKLTCLASYCWLFWTGIa [2]): (++)
Vmax, FXa generation assay [3]: > 2
Vmax, FXa generation assay [4]: > 3
Vmax, FXa generation assay [5]: > 3
Vmax, FXa generation assay; (++) means 1-2 (FGQPSRLTCLASYCWLFGNLVT): (++)
Vmax, FXa generation assay (KLKCLASYCWLF): > 3
Vmax, FXa generation assay [6]: > 2
Vmax, FXa generation assay [7]: > 2
Vmax, FXa generation assay [8]: > 3
Vmax, FXa generation assay; (++) means 1-2 [9]: (++)
Vmax, FXa generation assay [10]: > 3
Vmax, FXa generation assay [11]: > 2
Vmax, FXa generation assay [12]: > 3
Vmax, FXa generation assay [13]: > 3
Vmax, FXa generation assay; (++) means 1-2 (NGGMQKPACLASQCWLFANPLP): (++)
Vmax, FXa generation assay (KATCLASYCWLF): > 2
Vmax, FXa generation assay [14]: > 2
Vmax, FXa generation assay; (++) means 1-2 (KLT-Dap-LASY-Glu-WLF): (++)
Vmax, FXa generation assay [15]: > 2
Vmax, FXa generation assay [16]: > 2
Vmax, FXa generation assay [17]: > 3
Vmax, FXa generation assay [18]: > 2
Vmax, FXa generation assay (rRAAGKATCLASACW LAATGIA): > 3
Vmax, FXa generation assay [19]: > 1.9
Vmax, FXa generation assay (R-k-MeLeu-TCLASYCWLF): > 3
Vmax, FXa generation assay [20]: > 2
Vmax, FXa generation assay (KLACLASYCWLF): > 2
Vmax, FXa generation assay [21]: > 3
Vmax, FXa generation assay [22]: > 3
Vmax, FXa generation assay; (++) means 1-2 (KL-MeThr-CLASYCWLF): (++)
Vmax, FXa generation assay; (++) means 1-2 [23]: (++)
Vmax, FXa generation assay; (++) means 1-2 [24]: (++)
Vmax, FXa generation assay [25]: > 3
Vmax, FXa generation assay [26]: > 3
Vmax, FXa generation assay [27]: > 2
Vmax, FXa generation assay; (++) means 1-2 (KLT-Dab-LASY-Glu-WLF): (++)
Vmax, FXa generation assay; (++) means 1-2 (RRAPGKLTCLASYCWLFWtGIA [28]): (++)
Vmax, FXa generation assay [29]: > 2
Vmax, FXa generation assay [30]: > 3
Vmax, FXa generation assay [31]: > 3
Vmax, FXa generation assay [32]: > 2
Vmax, FXa generation assay; (++) means 1-2 [33]: (++)
Vmax, FXa generation assay; (++) means 1-2 [34]: (++)
Vmax, FXa generation assay [35]: > 2
